The target of series [1] is reduced and carboxymethylated (S54G, P55N)-RNase T1 (UniProt P00651).
Series [2] addresses T1, reduced and carboxymethylated (S54G, P55N)-RNase T1, P00651.
T1 chain: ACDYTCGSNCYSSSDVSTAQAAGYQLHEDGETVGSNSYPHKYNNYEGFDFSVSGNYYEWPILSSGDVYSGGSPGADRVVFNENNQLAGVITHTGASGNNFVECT

The molecule hFKBP12 showed a Specificity constant kcat/KM (RCM-T1 refolding assay) in series [1] of 14000 M⁻¹ s⁻¹.

B1: hFKBP12-IF4 (protein)
chain: GVQVETISPGDGRTFPKRGQTAVVHYTGMLEDGKKFDSSRDRNKPFKFMLGKQEVIRGWEEGVAQMSVGQRAKLTISPDYAYGVPSPDLIQYFSRREFMDAGEPEIGAIMLFTAMDGSEMPGVIREINGDSITVDFNHPLAGQTLVFDVELLKLEHHHHHH
On to B1, for which, in series [2], the Specificity constant kcat/KM (RCM-T1 refolding assay) worked out at 850000 M⁻¹ s⁻¹ and the “specificity constant (kcat/KM)” value was 800.000 M⁻¹ s⁻¹.

B2: SlyD* ΔIF loop (protein)
chain: MKVAKDLVVSLAYQVRTEDGVLVDESPVSAPLDYLHGHGSLISGLETALEGHEVGDKFDVAVGANDAYGATGHPGIIPPHATLKFNVEVVAIREATEEELAHGHVHGAHDHHHDHDHDHHHHHH
With B2, in series [2], the Specificity constant kcat/KM (RCM-T1 refolding assay) is 500 M⁻¹ s⁻¹ and the “specificity constant relative to SlyD*” value was “amounts to only 0.07% of SlyD*”.

B3: TcFKBP18 (protein)
chain: MKVEAGDYVLFHYVGRFEDGEVFDTSYEEIARENGILVEEREYGPMWVRIGVGEIIPGLDEAIIGMEAGEKKTVTVPPEKAYGMPNPELVISVPREEFTKAGLEPQEGLYVMTDSGIAKIVSVGESEVSLDFNHPLAGKTLVFEVEVIEVKKAEEDSEA
B3 yielded a Specificity constant kcat/KM (RCM-T1 refolding assay) in series [2] of 600000 M⁻¹ s⁻¹.

B4: hFKBP12-IF5 (protein)
chain: GVQVETISPGDGRTFPKRGQTCVVHYTGMLEDGKKFDSSRDRNKPFKFMLGKQEVIRGWEEGVAQMSVGQRAKLTISPDYAYGMPNPELVISVPREEFTKAGLEPQEGLYVMTDSGIAKIVSVGESEVSLDFNHPLAGKTLVFDVELLKLEHHHHHH
B4 showed a Specificity constant kcat/KM (RCM-T1 refolding assay) in series [2] of 660000 M⁻¹ s⁻¹.

B5: SlpA (protein)
chain: SESVQSNSAVLVHFTLKLDDGTTAESTRNNGKPALFRLGDASLSEGLEQHLLGLKVGDKTTFSLEPDAAFGVPSPDLIQYFSRREFMDAGEPEIGAIMLFTAMDGSEMPGVIREINGDSITVDFNHPLAGQTVHFDIEVLEIDPALEAHHHHHH
As for B5, the Specificity constant kcat/KM (RCM-T1 refolding assay) in series [2] was under 1000 M⁻¹ s⁻¹.

B6: SlyD* (SlyD 1-165) (protein)
chain: MKVAKDLVVSLAYQVRTEDGVLVDESPVSAPLDYLHGHGSLISGLETALEGHEVGDKFDVAVGANDAYGQYDENLVQRVPKDVFMGVDELQVGMRFLAETDQGPVPVEITAVEDDHVVVDGNHMLAGQNLKFNVEVVAIREATEEELAHGHVHGAHDHHHDHDHDHHHHHH
Turning to B6, in series [2], the Specificity constant kcat/KM (RCM-T1 refolding assay) stood at 680000 M⁻¹ s⁻¹ and the “concentration at which refolding of RCM-T1 is twofold accelerated” value was “In the presence of as low as 2 nM SlyD* refolding of RCM-T1 is already twofold accelerated”.

B7: hFKBP12-IF1 (C22A) (protein)
chain: GVQVETISPGDGRTFPKRGQTAVVHYTGMLEDGKKFDSSRDRNKPFKFMLGKQEVIRGWEEGVAQMSVGQRAKLTISPDYAYGQYDENLVQRVPKDVFMGVDELQVGMRFLAETDQGPVPVEITAVEDDHVVVDGNHMLAGQNLVFDVELLKLEHHHHHH
Turning to B7, in series [2], the Specificity constant kcat/KM (RCM-T1 refolding assay) is 2.5e+06 M⁻¹ s⁻¹, the “concentration sufficient to double the folding rate of RCM-T1” value is given as “Less than 1 nM FKBP12-IF1 are sufficient to double the folding rate of RCM-T1” and the specificity constant result is “higher than 2.5×10^6 M^-1s^-1”.

(Values after patent US20090042251.)
